Assays:
[1] = molecular target: T1, MORF PHD1/2 fingers (aa 211-329) (human), Q8WYB5; assay: other fluorescence titration
T1 chain: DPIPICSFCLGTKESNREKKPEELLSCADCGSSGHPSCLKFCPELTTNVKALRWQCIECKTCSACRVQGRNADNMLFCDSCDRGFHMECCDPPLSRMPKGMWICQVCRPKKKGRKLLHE

[2] = molecular target: MOZ PHD1/2 fingers (aa 207-318) (human), Q92794; assay: other fluorescence titration
MOZ PHD1/2 fingers (aa 207-318) (human), Q92794, sequence (Q92794 207-318): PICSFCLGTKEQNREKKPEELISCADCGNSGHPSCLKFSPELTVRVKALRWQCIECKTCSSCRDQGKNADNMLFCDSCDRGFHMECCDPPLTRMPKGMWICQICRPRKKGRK

Kd [1]: 4.3 µM
Kd [2]: 3.9 µM
Binder: ARTKQTARKSTG (modifications not checked) [unmodified histone H3 peptide (length not stated for the experiment)]

Reference: PMC3502708
